System: MS2 coat protein
Assay: apparent KD of MS2 coat protein; designed switch direction (-1 OFF switch, 1 ON switch): -1; higher = weaker reporter binding
Summary of the method: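 The apparent KD reported per design is the median over clusters of curve fits to normalised cluster fluorescence. The RNA switches were transcribed on Illumina chips by stalled E. coli RNA polymerase. SNAP-549-labelled MS2 coat protein was titrated from 0.7 or 1.5 nM, doubling up to 3 µM, in Tris-HCl pH 7.5 buffer containing KCl, MgCl2, BSA, DTT, tRNA and Tween-20, with no input, 200 uM small-molecule ligand, or an oligonucleotide input.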

[1] = Eterna round: R95, input ligand: FMN 200 uM
[2] = Eterna round: R95, input ligand: microRNA oligo, concentration not stated
[3] = Eterna round: R95, input ligand: none
[4] = input ligand: microRNA oligo, concentration not stated

Sequence | apparent KD of MS2 coat protein (input ligand: FMN 200 uM) | apparent KD of MS2 coat protein (input ligand: none) | apparent KD of MS2 coat protein [1] | apparent KD of MS2 coat protein [2] | apparent KD of MS2 coat protein [3] | apparent KD of MS2 coat protein [4]
AUAUUAAUAGUAAGGAUAUGCGUAUAUAUAGUUAUGCAGAAGGUACAUGAGGAUCACCCAUGUAUUAAUGUGUA [LRO-BmodExc4-03-Oppy's Opus] (Eterna round: R97, puzzle: Brourd's mod of Exclusion 4) | 14.9 nM | 14.3 nM |  |  |  | 
AAGAAGAUAGGAUAUACGAGGAGAGGAGAGAAGAGGUGAGGACAUGAGGAUCACCCAUGUAGAAGGAUCAGGAA [JR_Exclu2_Sub063] (puzzle: Exclusion 2) |  |  | 88.7 nM | 266 nM | 176 nM | 
GUAGAGUAAGGAUAUUGUGAAUAGGAUAGAAUGGUUAGAAACGAGAAGGUACAUGAGGAUCACCCAUGUAAUGU [Excluse me!!!! 22 - Jieux - Exclusion 4] (puzzle: Exclusion 4) |  |  | 24.1 nM | 22.1 nM | 24.4 nM | 
UACCGGCGGACCGAAGCUUUUUGCUUGUCUUAUACUACGACAUGAGGAUCACCCAUGUGGUGGUGGUCCGUUGUAGU [JL ViennaUCT Bitein mod 3] (puzzle: Sensor v3, turn-off variant 2) |  |  | 48.3 nM | 13.1 nM | 52.1 nM | 
GGCACACAUGAGGAUCACCCAUGUGAGGAUAUGGUGCGAUCGUCGAUAGACGAUAGCACUAGAAGGCACAUGCC [Mat - Exclusion 1 - Eli Mod - D6] (Eterna round: R97, puzzle: Exclusion 1) | 25.5 nM | 17.8 nM |  |  |  | 
AAGUACCGUCACGAUAGUGAUGGUACAACAAGUGGUGAAACAUGAGGAUCACCCAUGUCCUCAAUUGCUCGUCUUAU [Sensor 3 - 85] (puzzle: Sensor v3, turn-off variant 2) |  |  | 1030 nM | 231 nM | 999 nM | 
UUCCUACAUGAGGAUCACCCAUGUCAGGAUAUCUCCUCACUGCGCUUGCGCAGUGAAUAGAGAAGGGACAGGCU [JL ViennaUCT Aner mod 1] (puzzle: Exclusion 1) |  |  |  | 15.9 nM |  | 
AGACAGUCAGGAUAUACAUGAGGAUCACCCAUGUUAAGAAGAGAAAGGGCAGGAAGAGGUAGAAGGGACAAGAA [JR_Exclu3_Sub033] (puzzle: Exclusion 3) |  |  | 21.1 nM | 23.6 nM | 29.5 nM | 
UUAACCAGAGGAUAUGCGAAUAAAUAAAACUUUUUUUUUUAACAUGAGGAUCACCCAUGUAGAAGGCUGCAUUU [Ex2 #30] (Eterna round: R97, puzzle: Exclusion 2) | 25.4 nM | 25.1 nM |  |  |  | 
CUAAGUCGAGGAUAUGCAUGGUGACAUGAUGCCGAUGCACGACAUGAGGAUCACCCAUGUAGAAGGCGACUUAG [Eternabot (L2) Solution 50] (Eterna round: R97, puzzle: Exclusion 2) | 8.04 nM | 835 nM |  |  |  | 
AAACAGGGAGGAUAUACAUAGAUCCUCUAACCUAAUAGGUCACAUGAGGAUCACCCAUGUAGAAGGCCCUUAGG [Biinbebi] (puzzle: Exclusion 2) |  |  |  | 14.3 nM |  | 
CUUAGCCUAAAAUCACGCAAGCUUUUUGCUUGUCUUAAGACAUGAGGAUCACCCAUGUCCGGGCUGAACUUAUGGAA [Zarebe] (puzzle: Sensor v3, turn-off variant 2) |  |  | 17.5 nM | 20.4 nM | 17.1 nM | 
UUUUUUUUUGUGAGGAUAUACUUUUUUUUUUUUUUGUAGAAGGCACAUGAGGAUCACCCAUGUUUUUUUUUCUC [JR_BME4_Sub029] (puzzle: Brourd's mod of Exclusion 4) |  |  |  | 13.2 nM |  | 
GAAAAGGUAGGAUAUACGAAAAAAAAGGGUAGAAAAAAAACACAUGAGGAUCACCCAUGUAGAAGGACCUAAAG [salish99_ex2_r3_090] (puzzle: Exclusion 2) |  |  | 56.1 nM | 25.7 nM | 24.6 nM | 
CUUUUGUGAGGAUAUUAGUAGUUAAUAAAUAAAAUUACUACUGAGAAGGCACAUGAGGAUCACCCAUGUUCCUC [salish99_ex4_r3_051] (puzzle: Exclusion 4) |  |  |  | 32.8 nM |  | 
AAAUAAUCAGGAUAUACAUGAGGAUCACCCAUGUACCUCUUGUACGAGGGCCGCCCGUGUAGAAGGGAUGACAA [Arralara] (puzzle: Exclusion 3) |  |  | 72.6 nM | 40.1 nM | 40 nM | 
UUUUGUUUUUUAUUUUUUAACAUGAGGAUCACCCAUGUAACGAGCAGAUCUUCAUGCAAGCUUUUUGCUCGUCUUAU [Sensor v3 - Turn-off variant 1 - 42] (puzzle: Sensor v3, turn-off variant 1) |  |  | 42.2 nM | 16.1 nM | 60.6 nM | 

Sequence | apparent KD of MS2 coat protein (input ligand: FMN 200 uM) | apparent KD of MS2 coat protein (input ligand: none) | apparent KD of MS2 coat protein [1] | apparent KD of MS2 coat protein [2] | apparent KD of MS2 coat protein [3] | apparent KD of MS2 coat protein [4]
CUUGUUUAUGUAGGAUAUGCCUGGCGUGCCUUUGCAGAAGGACAUGAGGAUCACCCAUGUAACAUGAGGCUCCACCUUGUCGCC [salish99_ExNG1_r04_117] (Eterna round: R96, puzzle: Exclusion NG 1) |  |  |  |  |  | 111 nM
ACCAUUACCACACCCUCUAUACAUGAGGAUCACCCAUGUUCUGAGGAUAUCAUCGCUCGCCGCGUUGAGAAGGCAGAGCAUUAA [Tiisri] (Eterna round: R96, puzzle: Exclusion NG 3) | 50.8 nM | 15.1 nM |  |  |  | 9.21 nM
ACAUGUCAUUGAGGAUAUCGCACACAUGAGGAUCACCCAUGUAAACGGAUGCUCUUACGUGGGUUCGAGAAGGCGAUGUACAUU [Ex NG2 #95] (Eterna round: R96, puzzle: Exclusion NG 2) | 458 nM | 142 nM |  |  |  | 112 nM
ACGGUGGUCCGAGAACAUGAGGAUCACCCAUGUGACAAAACCAAGGAUAUAGACGGACCGCCCGACUAGAAGGUGGAAAGAAAA [Aronlema] (Eterna round: R96, puzzle: Exclusion NG 3) | 90.2 nM | 77.9 nM |  |  |  | 41.1 nM
CACCGUAACAGAGGAUAUGAUACAUGAGGAUCACCCAUGUAAUAAAUGAGAAUUUCGAAUGUACCUCAGAAGGCUGGAACCGGC [Ostricism 80 - Jieux - Exclusion NG 2] (Eterna round: R96, puzzle: Exclusion NG 2) |  |  |  |  |  | 33.9 nM
GAAAAUGUGGAGGAUAUCGACUUCGAAAGAAGUCGAGAAGGCCACACAUGAGGAUCACCCAUGUGUUGCUUAUA [Omei Ex6 H7] (Eterna round: R97, puzzle: Exclusion 6) | 20.7 nM | 16 nM |  |  |  | 
AGUAGGUCUACCUUGGUGGAUCUGCAUAAAGCAAGUGAAACAUGAGGAUCACCCAUGUCCUCAUUUGCUCGUCUUAU [JL turnoff v2 99.20] (puzzle: Sensor v3, turn-off variant 2) |  |  | 14.8 nM | 634 nM | 13 nM | 
UAACUUCUUGUAAGGAUAUCGGCGCGAAAGCGCAACGAGAAGGUACAUGAGGAUCACCCAUGUGAAAUAAGAAU [Mod of Zala 12 - Jieux - Brourd's Mod of Exclusion 4] (Eterna round: R97, puzzle: Brourd's mod of Exclusion 4) | 104 nM | 28.3 nM |  |  |  | 
ACAUGAGGAUCACCCAUGUUUGGCUGGUUUUCUCCGGCUGUCGAGGAUAUAGUCCGGUAUCCGCGCUAGAAGGUGAGGGCUGGC [Aenatbe mod 5] (Eterna round: R96, puzzle: Exclusion NG 3) | 14.5 nM | 20.4 nM |  |  |  | 13.1 nM
CUUUUGUGAGGAUAUCAGUAGUAAAUAAAUUAAAUUACUACUGAGAAGGCACAUGAGGAUCACCCAUGUUCCUC [salish99_ex3_r3_081] (puzzle: Exclusion 4) |  |  |  | 39.3 nM |  | 
UUGCCACAUGAGGAUCACCCAUGUGAGGAUAUGGCCUGUUUGGAGUGUGCUGGUUCUGUCAGAAGGCGCGUGGG [salish99_ex1_r4_033] (Eterna round: R97, puzzle: Exclusion 1) | 49.5 nM | 33.6 nM |  |  |  | 
AAGGUGUUAGGAUAUCGGAGGUUGAGGCAGACGGGAAUUUUCGAGAAGGAACAUGAGGAUCACCCAUGUAGUAG [JR_Exclu4_Sub038] (puzzle: Exclusion 4) |  |  | 19.1 nM | 22.7 nM | 21.3 nM | 
GGUGAGCUAGGAUAUGCUUUGGGAAAGCAUUCCUUCGAUAAACUUGAGGAUCACCCAAGUAGAAGGAGCUUGCC [salish99_ex2_r4_019] (Eterna round: R97, puzzle: Exclusion 2) | 18.7 nM | 11.9 nM |  |  |  | 
CUCCGACAUGAGGAUCACCCAUGUUAGGAUAUCCCACGCAGGUAGUGAGAGAAUCUGUGGAGAAGGAGCAGGGU [Eternabot (L2) Solution 74] (Eterna round: R97, puzzle: Exclusion 1) | 21.9 nM | 24.5 nM |  |  |  | 
CGUGACUCAGGAUAUCGAUUAUAUCACAUGAGGAUCACCCAUGUCCAGCGAAAGCUGGAGUGAGAAGGGAGUCACG [Fiskers Ex 5 - 49] (puzzle: Exclusion 5) |  |  | 47.6 nM | 107 nM | 109 nM | 
AGAUGGAAGCAGGAUAUGCUUGUAUAAUUGAAAGCAGAAGGGCUAACAUGAGGAUCACCCAUGUAAGAGGUGUA [JR_E6_Sub059] (puzzle: Exclusion 6) |  |  | 302 nM | 282 nM | 352 nM | 
UACAUGAGGAUCACCCAUGUUUUGUCGUGUAUGGUAUUUAUCUAGGAUAUCAAUGUAUAUAUUUAUGAGAAGGAGAAUAUUAAU [JMF's solution 42] (Eterna round: R96, puzzle: Exclusion NG 3) | 37.4 nM | 34 nM |  |  |  | 25.1 nM

— the supplement of paper PMC9170038
